What is called Kd is the concentration at which binding is half-saturated. The low end stands for higher affinity, the high end for lower affinity. In general, stoichiometry N refers to the number of molecules, sites or subunits per partner or assembly.

Three molecules from PMC5594493, “Antiproliferative factor (APF) binds specifically to sites within the cytoskeleton-associated protein 4 (CKAP4) extracellular domain” (BMC Biochemistry, 2017) can be followed below.

One assay concerns CKAP4. Kind of assay: SPR binding to CKAP4 recombinant proteins (overall statements). As to conditions: comparison of as-APF, APF and control peptide. As to the method:
(§1) All SPR experiments were performed on a Biacore X-100 instrument (GE Healthcare) with the chip surface at 25 °C using PBS containing 0.01% Tween-20 as running buffer. CKAP4 recombinant proteins were immobilized individually either by Ni^2+/nitrilotriacetic acid (NTA) chelation on Sensor Chip NTA or by amine-coupling on Sensor Chip CM5, on the Fc2 channel. For amine-coupling, the sensor surface on both flow cells was activated for 7 min with a 1:1 mixture of 0.1 M EDC (1-ethyl-3-(3-dimethylaminopropyl) carbodiimide hydrochloride) and 0.1 M NHS (N-hydroxysuccinimide) at a flow rate of 5 μl/min. Immobilization of CKAP4 proteins (on Fc2) was performed in 10 mM sodium acetate buffer, at either pH 4.5, 5.0, or 5.5 based on preliminary pH scouting runs, for optimal binding. Unreacted NHS groups were quenched with a 7 min injection of 1 M ethanolamine pH 8.5. The Fc1 channel was treated similarly but without CKAP4 and served as a reference. Upon stabilization of the baseline signal, multi-cycle kinetics assays were performed with injections of as-APF as analyte at various concentrations (2.5–40 μM) in running buffer at 30 μl/min for 2 min, immediately followed by a 3 min dissociation phase. […] The data were analyzed using Biacore Evaluation software V2.0. […]
For orientation: SPR reads the build-up and loss of mass on a sensor chip optically.

The next assay deals with T1, CKAP4_525–602 (Homo sapiens, UniProt Q07065).
T1 construct: amino acids 106–602, 127–360, 361–524, and 525–602 regions were generated by PCR and subcloned into the pET-15b bacterial expression vector; His-tag; made in house; host or cells: E. coli BL21(DE3)pLysS
T1 sequence (Q07065 525-602): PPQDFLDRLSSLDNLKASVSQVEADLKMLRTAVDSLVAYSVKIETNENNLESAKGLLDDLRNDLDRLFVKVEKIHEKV
The assay is described as follows: SPR binding kinetics, CKAP4_525–602 immobilized on CM5. As to conditions: CM5 amine-coupling. On the procedure:
as §1, with “binding.” for “binding. Unreacted NHS groups were quenched with a 7 min injection of 1 M ethanolamine pH 8.5. The Fc1 channel was treated similarly but without CKAP4 and served as a reference. Upon stabilization of the baseline signal, multi-cycle kinetics assays were performed with injections of as-APF as analyte at various concentrations (2.5–40 μM) in running buffer at 30 μl/min for 2 min, immediately followed by a 3 min dissociation phase.”
(§2) To assess the as-APF binding activity of the purified CKAP4 deletion mutants, each protein was separately immobilized on a CM5 sensor chip through amine coupling, and SPR responses against APF control peptide and various as-APF concentrations were observed. We used this reverse approach to assess as-APF binding kinetics because the concentration of as-APF synthetic peptide could be calculated more accurately than the purified CKAP4 deletion mutants, which vary in amino acid composition. […]

For the next assay, the target named is T2, CKAP4_361–524 (Homo sapiens, UniProt Q07065).
T2 construct: amino acids 106–602, 127–360, 361–524, and 525–602 regions were generated by PCR and subcloned into the pET-15b bacterial expression vector; His-tag; made in house; host or cells: E. coli BL21(DE3)pLysS
T2 sequence (Q07065 361-524): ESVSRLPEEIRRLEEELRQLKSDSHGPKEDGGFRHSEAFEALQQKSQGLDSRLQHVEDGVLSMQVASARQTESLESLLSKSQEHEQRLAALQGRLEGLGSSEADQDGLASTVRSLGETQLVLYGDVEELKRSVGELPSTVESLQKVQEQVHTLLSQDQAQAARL
The assay is described as follows: SPR binding kinetics, CKAP4_361–524 immobilized on CM5. As to conditions: CM5 amine-coupling. On the procedure: as §1, with “binding.” for “binding. Unreacted NHS groups were quenched with a 7 min injection of 1 M ethanolamine pH 8.5. The Fc1 channel was treated similarly but without CKAP4 and served as a reference. Upon stabilization of the baseline signal, multi-cycle kinetics assays were performed with injections of as-APF as analyte at various concentrations (2.5–40 μM) in running buffer at 30 μl/min for 2 min, immediately followed by a 3 min dissociation phase.”
as §2

A further assay has as its target T3, CKAP4_127–360 (Homo sapiens, UniProt Q07065).
T3 construct: amino acids 106–602, 127–360, 361–524, and 525–602 regions were generated by PCR and subcloned into the pET-15b bacterial expression vector; His-tag; made in house; host or cells: E. coli BL21(DE3)pLysS
T3 sequence (Q07065 127-360): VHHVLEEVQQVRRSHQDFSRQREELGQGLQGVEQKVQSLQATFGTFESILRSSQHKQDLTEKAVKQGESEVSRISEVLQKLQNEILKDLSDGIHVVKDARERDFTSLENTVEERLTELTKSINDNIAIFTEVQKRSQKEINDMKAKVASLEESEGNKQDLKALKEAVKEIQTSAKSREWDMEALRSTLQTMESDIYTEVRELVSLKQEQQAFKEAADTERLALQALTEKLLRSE
Kind of assay: SPR binding kinetics, CKAP4_127–360 immobilized on CM5. As to conditions: CM5 amine-coupling. As to the method:
as §1, with “binding.” for “binding. Unreacted NHS groups were quenched with a 7 min injection of 1 M ethanolamine pH 8.5. The Fc1 channel was treated similarly but without CKAP4 and served as a reference. Upon stabilization of the baseline signal, multi-cycle kinetics assays were performed with injections of as-APF as analyte at various concentrations (2.5–40 μM) in running buffer at 30 μl/min for 2 min, immediately followed by a 3 min dissociation phase.”
as §2

In the next assay the target is CKAP4_(525–602) (UniProt Q07065). Kind of assay: SPR; CKAP4 deletion mutant amine-coupled on Fc2 of a CM5 chip (352, 585, 1914 RU), Fc1 blank reference; multi-cycle kinetics with as-APF 2.5–40 μM, 30 μl/min, 2 min association, 3 min dissociation; 25 °C, PBS with 0.01% Tween-20; heterogeneous ligand, 1:1 or two-state fit.
For the next assay, the target named is CKAP4_(361–524) (UniProt Q07065). Described as above.
For assay [1], the target named is T4, CKAP4_(127–360) (UniProt Q07065 127-360).
T4 chain: T3 sequence (Q07065 127-360)
The assay is described as above.

For assay [2], the target named is T4, CKAP4_(127–360). The assay is described as follows: SPR; heterogeneous ligand fit, KD1.

TVPAAVVVA [APF control peptide]: the “binding to CKAP4 (in words)” value in the assay with CKAP4 is reported as “no binding response”. Besides, the specific binding result at CKAP4_525–602, at CKAP4_361–524 and at CKAP4_127–360 was “no specific binding was detected” in each case.

In the assay with CKAP4_(525–602), “as-APF (asialo APF, Galβ1−3GalNAcα-O-…) (peptide)” returned a dissociation constant (Kd) of 197 µM and a stoichiometry N of 1.5. In the assay with CKAP4_(361–524), this molecule displayed a Kd of 2.3 µM and a stoichiometry N of 1. Also, in the assay with CKAP4_(127–360) [1], the KD1 (heterogeneous ligand fit) amounted to 4.61 µM, the KD2 (heterogeneous ligand fit) was 0.66 nM and the stoichiometry N worked out at 7.1.

Take TVPAAVVVA (Galβ1−3GalNAcα-O- disaccharide on the N-terminal threonine) [as-APF (asialo APF, Galβ1−3GalNAcα-O-TVPAAVVVA)]: binding in the assay with CKAP4_(127–360) [2] was characterised by a dissociation constant (Kd) of 4.6 µM.
